Results published in patent publication US20100247515A1 (DOMANTIS, published 2010).

T1: TNFR1 on MRC-5 fibroblasts (UniProt P19438 30-455, limits assumed)
T1 sequence (looked up): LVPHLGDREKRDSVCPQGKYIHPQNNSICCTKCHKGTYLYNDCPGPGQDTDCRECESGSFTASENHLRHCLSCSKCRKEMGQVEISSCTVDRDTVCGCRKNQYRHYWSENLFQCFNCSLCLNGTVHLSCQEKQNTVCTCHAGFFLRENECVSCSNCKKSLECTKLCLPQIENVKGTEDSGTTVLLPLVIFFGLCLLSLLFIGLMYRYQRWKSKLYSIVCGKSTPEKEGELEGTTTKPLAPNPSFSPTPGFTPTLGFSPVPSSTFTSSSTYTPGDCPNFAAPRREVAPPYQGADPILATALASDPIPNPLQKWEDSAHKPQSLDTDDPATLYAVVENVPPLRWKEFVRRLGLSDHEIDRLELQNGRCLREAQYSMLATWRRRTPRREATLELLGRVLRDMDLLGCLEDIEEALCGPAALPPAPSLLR


Molecular target: T1, TNFR1 on MRC-5 fibroblasts
Assay: cell-based or functional assay

| ND50, MRC-5 cell-based assay | Binder |
| --- | --- |
| 2.28 nM | DOM1h-131-203 (other) VH: EVQLWESGGGLVQPGGSLRLSCAASGFTFAHETMVWVRQAPGKGLEWVSHIPPDGQDPFYADSVKGRFTISRDNSKNTLYLQMNSLRAEDTAVYYCALLPKRGPWIDYWGQGTLVTVSS |
| 1.89 nM | DOM1h-131-204 (other) VH: EVQLSESGGGLVQPGGSLRLSCAASGFTFAHETMVWVRQAPGKGLEWVSHIPPDGQDPFYADSVKGRFTISRDNSKNTLYLQMNSLRAEDTAVYYCALLPNRGPWFDYWGQGTLVTVSS |
